In series [1] the target is T1, caspase-11 p20 subunit of the catalytic domain (murine, UniProt P70343 60-266).
T1 construct: caspase-11, murine, p20 subunit, residues 60–266; source: E. coli, by auto-processing of MBP-tagged full-length wild-type caspase-11, purified
T1 sequence (looked up): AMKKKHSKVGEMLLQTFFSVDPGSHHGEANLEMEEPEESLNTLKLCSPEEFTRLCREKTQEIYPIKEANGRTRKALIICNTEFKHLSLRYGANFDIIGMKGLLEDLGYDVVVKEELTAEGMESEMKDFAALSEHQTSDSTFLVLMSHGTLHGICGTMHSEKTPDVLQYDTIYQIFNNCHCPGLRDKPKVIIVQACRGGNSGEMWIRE
As to the kind of experiment: SEC; analytical gel-filtration column of auto-processed wild-type caspase-11 from E. coli; the fraction then on an SDS gel, bands identified by N-terminal sequencing and mass spectrum. The following applies: both partners purified. (In gel filtration, larger molecules generally elute earlier.)

Series [2] deals with the molecule itself. As to the kind of experiment: SEC; gel filtration on Superdex 200, 250 mM NaCl, 10 mM Tris-HCl pH 8.0; MBP-tagged proteins, 1 mg each where told.
Series [3] deals with the molecule itself. In words: AUC; sedimentation velocity, 50,000 r.p.m., 20.0 °C, 250 mM NaCl, 10 mM Tris-HCl pH 8.0; 0.187 and 1.53 mg/mL; c(s) distributions; monomer to homodimer and homotetramer.
Series [4] concerns the molecule itself. In words: SEC-MALS; DAWN HELEOS 8+, room temperature, samples at 1 mg/mL in 250 mM NaCl, 10 mM Tris-HCl pH 8.0; ASTRA analysis.

B1: caspase-11 p10 subunit of the catalytic domain (domain or fragment, murine, UniProt P70343 286-373, looked up)
chain: AVKLSHVEKDFIAFYSTTPHHLSYRDKTGGSYFITRLISCFRKHACSCHLFDIFLKVQQSFEKASIHSQMPTIDRATLTRYFYLFPGN
notes: caspase-11, murine, p10 subunit, residues 286–373; source: E. coli, by auto-processing of MBP-tagged full-length wild-type caspase-11, purified
Turning to B1, the binding result in series [1] is listed as “binds”.

B2: MBP-caspase-11 protein carrying only the C254A mutation (C254A-caspase-11) (enzyme, murine, UniProt P70343 1-373, looked up)
chain: MAENKHPDKPLKVLEQLGKEVLTEYLEKLVQSNVLKLKEEDKQKFNNAERSDKRWVFVDAMKKKHSKVGEMLLQTFFSVDPGSHHGEANLEMEEPEESLNTLKLCSPEEFTRLCREKTQEIYPIKEANGRTRKALIICNTEFKHLSLRYGANFDIIGMKGLLEDLGYDVVVKEELTAEGMESEMKDFAALSEHQTSDSTFLVLMSHGTLHGICGTMHSEKTPDVLQYDTIYQIFNNCHCPGLRDKPKVIIVQAARGGNSGEMWIRESSKPQLCRGVDLPRNMEADAVKLSHVEKDFIAFYSTTPHHLSYRDKTGGSYFITRLISCFRKHACSCHLFDIFLKVQQSFEKASIHSQMPTIDRATLTRYFYLFPGN
notes: caspase-11, murine, full-length protein with C254A; also called MBP-caspase-11 C254A; source: E. coli, purified (gel filtration); not shown: MBP, N-terminal, kept; His6, C-terminal, kept
Take B2: the binding result in series [2] was “binds”.

B3: MBP-tagged caspase-11 CARD, residues 1–101 (WT-CARD^aa1–101) (domain or fragment, murine, UniProt P70343 1-101, looked up)
chain: MAENKHPDKPLKVLEQLGKEVLTEYLEKLVQSNVLKLKEEDKQKFNNAERSDKRWVFVDAMKKKHSKVGEMLLQTFFSVDPGSHHGEANLEMEEPEESLNT
notes: source: E. coli Rosetta and BL21 (DE3), purified (nickel column, Superdex 200 gel filtration); not shown: MBP, N-terminal, kept; His6, C-terminal, kept
Usually stoichiometry N stands for a count of units in the complex or per binding partner. Take B3: the “stoichiometry N” value in series [3] turned out to be 2; in series [4] it was 4.

B4: MBP-tagged caspase-11 CARD, residues 1–101, V13A L14A L17A V21A (VLLV-CARD^aa1–101) (domain or fragment, murine, UniProt P70343 1-101, looked up)
chain: MAENKHPDKPLKAAEQAGKEALTEYLEKLVQSNVLKLKEEDKQKFNNAERSDKRWVFVDAMKKKHSKVGEMLLQTFFSVDPGSHHGEANLEMEEPEESLNT
notes: source: E. coli, purified (nickel column, gel filtration); not shown: MBP, N-terminal, kept; His6, C-terminal, kept
For the molecule B4, the binding result in series [2] was “binds”.

B5: MBP-tagged WT-CARD^aa1–101 with the first ten amino acids replaced by a GS repeat sequence (GS repeat mutant) (domain or fragment, murine)
chain: GSGSGSGSGSLKVLEQLGKEVLTEYLEKLVQSNVLKLKEEDKQKFNNAERSDKRWVFVDAMKKKHSKVGEMLLQTFFSVDPGSHHGEANLEMEEPEESLNT
notes: flexible GS repeat that replaces the first ten amino acids of caspase-11; source: E. coli, purified (nickel column, gel filtration); not shown: MBP, N-terminal, kept; His6, C-terminal, kept
With B5, the binding result in series [2] is “binds”.
